Test results: US20260263595A1 (BETH ISRAEL DEACONESS MEDICAL CENTER, published 2026)

Target: T1, human CD40 on human B cells (CD20+ cells of human PBMCs) (human, UniProt P25942 21-277)
T1 construct: whole, on cells; also called native CD40 on human blood B cells; human CD20+ B cells
Test: flow cytometry on human PBMCs, CD20+ gate (FIG. 2A)
Protocol: The CD40 antibody 2C10 was characterized with respect to its ability to affect B cell activation both using rhesus monkey and human peripheral blood mononuclear cells (PBMCs). CD20 expression was chosen as being an indicator of B cells, and expression of CD23, CD80, and CD86 is associated with B cell activation. 2C10 was first assessed for its ability to bind to […]. Rhesus or human PBMCs were incubated with fluorochrome-conjugated 2C10 and an anti-CD20 antibody. Flow cytometric analysis was used to confirm the binding of 2C10 to human and rhesus CD20+ B cells (FIG. 2A). In another set of experiments, PBMCs from either rhesus monkey or humans were cultured either in the presence or absence of CD154⁺ Jurkat D1.1 cells, an immortalized T lymphocyte cell line. Activation of B cells was determined by measuring expression of three markers (CD23, CD80, and CD86) in CD20⁺ cells present in the PBMCs.

T1 sequence (P25942 21-277): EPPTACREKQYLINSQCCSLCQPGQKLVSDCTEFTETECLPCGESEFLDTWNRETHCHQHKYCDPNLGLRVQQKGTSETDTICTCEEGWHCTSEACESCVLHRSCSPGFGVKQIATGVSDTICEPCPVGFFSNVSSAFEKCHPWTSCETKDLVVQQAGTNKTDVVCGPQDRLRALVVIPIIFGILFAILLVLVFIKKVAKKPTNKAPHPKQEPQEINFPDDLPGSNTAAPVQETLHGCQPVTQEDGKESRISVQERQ

binding result: binds
B1: anti-CD40 antibody 2C10 (antibody, mouse IgG1, V domains shown)
VH: QVQLQQSGAELAKPGASVKMSCKASGYTFTNYWMHWVKQRPGQGLEWIGYINPSNDYTKYNQKFKDKATLTADKSSNTAYMQLGSLTSEDSAVYYCARQGFPYWGQGTLVTVS
VL: QIVLTQSPAIMSASPGEKVTMTCSASSSVSYMHWYHQRSGTSPKRWIYDTSKLASGVPARFSGSGSGTSYSLTISSMEAEDAATYYCHQLSSDPFTFGSGTKLEIK
notes: also called 2C10 antibody; APC-conjugated 2C10
